2 molecules from patent US20200164029A1 (ACCELERON PHARMA, published 2020) can be followed below.

Some results are limits rather than exact numbers.

In experiment [1] the target is T1, VEGF (human, UniProt P15692-4 27-191, limits assumed).
T1 construct: also called vascular endothelial growth factor
Description: SPR. In general terms: In SPR one partner is held on a chip, and binding of the other changes the refractive index at the surface.

Experiment [2] concerns the target T2, human TGF-β2 (human, UniProt P61812 303-414).
T2 construct: also called hTGF-β2
T2 sequence (looked up): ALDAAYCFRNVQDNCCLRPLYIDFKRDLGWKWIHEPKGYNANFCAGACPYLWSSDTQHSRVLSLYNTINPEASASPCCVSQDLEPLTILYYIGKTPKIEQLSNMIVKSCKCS
Description: refers back to Example 3 (SPR).

Experiment [3] has as its target T3, human TGF-β3 (human, UniProt P10600 301-412).
T3 construct: also called hTGF-β3
T3 sequence (looked up): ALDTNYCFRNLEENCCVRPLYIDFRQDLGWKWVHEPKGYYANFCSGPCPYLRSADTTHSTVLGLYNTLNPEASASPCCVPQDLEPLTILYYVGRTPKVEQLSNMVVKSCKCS
Description: refers back to Example 3 (SPR).

Experiment [4] concerns the target T4, human TGF-β1 (human, UniProt P01137 279-390).
T4 construct: also called hTGF-β1
Description: refers back to Example 3 (SPR).

Experiment [5] addresses T5, human BMP-9 (human, UniProt Q9UK05 320-429).
T5 construct: also called hBMP-9
T5 sequence (looked up): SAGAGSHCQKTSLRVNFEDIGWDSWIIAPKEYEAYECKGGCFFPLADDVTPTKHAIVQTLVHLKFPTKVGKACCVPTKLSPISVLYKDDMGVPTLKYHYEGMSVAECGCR
Description: SPR competition: hENG(26-586) premixed with BMP-9, binding to captured ALK1-hFc. The source says:
(§1) BMP-9 and BMP-10 are high-affinity ligands at the type I receptor ALK1 (activin receptor-like kinase 1). […] Similar results were obtained with BMP-10 (FIG. 21).

Experiment [6] has as its target T5, human BMP-9. Description: SPR competition: hENG(26-586) 0-50 nM premixed with 10 nM BMP-9, binding to captured ALK1.
Excerpt: as §1

Experiment [7] deals with T6, human BMP-10 (human, UniProt O95393 317-424).
T6 construct: also called hBMP-10
T6 sequence (looked up): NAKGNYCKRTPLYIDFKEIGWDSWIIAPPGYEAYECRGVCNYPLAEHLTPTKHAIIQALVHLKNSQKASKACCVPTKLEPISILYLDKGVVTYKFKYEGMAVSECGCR
Description: SPR competition: hENG(26-586) 0-50 nM premixed with 10 nM BMP-10, binding to captured ALK1.
Excerpt: as §1

T4 sequence (P01137 279-390 limits assumed): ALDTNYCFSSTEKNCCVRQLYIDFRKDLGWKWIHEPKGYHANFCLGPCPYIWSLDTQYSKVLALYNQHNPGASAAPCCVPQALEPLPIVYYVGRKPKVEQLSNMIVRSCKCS
T1 sequence (P15692 other isoform, or with tags, fused parts or gaps limits assumed): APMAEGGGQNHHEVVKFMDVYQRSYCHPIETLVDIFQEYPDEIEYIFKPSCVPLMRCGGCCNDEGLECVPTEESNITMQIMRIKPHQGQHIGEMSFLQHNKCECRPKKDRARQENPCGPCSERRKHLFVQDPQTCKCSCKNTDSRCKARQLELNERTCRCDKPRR

B1: mENG(27-581)-mFc (Fc fusion)
chain: GGERVGCDLQPVDPTRGEVTFTTSQVSEGCVAQAANAVREVHVLFLDFPGMLSHLELTLQASKQNGTETQEVFLVLVSNKNVFVKFQAPEIPLHLAYDSSLVIFQGQPRVNITVLPSLTSRKQILDWAATKGAITSIAALDDPQSIVLQLGQDPKAPFLCLPEAHKDMGATLEWQPRAQTPVQSCRLEGVSGHKEAYILRILPGSEAGPRTVTVMMELSCTSGDAILILHGPPYVSWFIDINHSMQILTTGEYSVKIFPGSKVKGVELPDTPQGLIAEARKLNASIVTSFVELPLVSNVSLRASSCGGVFQTTPAPVVTTPPKDTCSPVLLMSLIQPKCGNQVMTLALNKKHVQTLQCTITGLTFWDSSCQAEDTDDHLVLSSAYSSCGMKVTAHVVSNEVIISFPSGSPPLRKKVQCIDMDSLSFQLGLYLSPHFLQASNTIELGQQAFVQVSVSPLTSEVTVQLDSCHLDLGPEGDMVELIQSRTAKGSCVTLLSPSPEGDPRFSFLLRVYMVPTPTAGTLSCNLALRPSTLSQEVYKTVSMRLNIVSPDLSGKGTGGGEPRVPITQNPCPPLKECPPCAAPDLLGGPSVFIFPPKIKDVLMISLSPMVTCVVVDVSEDDPDVQISWFVNNVEVHTAQTQTHREDYNSTLRVVSALPIQHQDWMSGKEFKCKVNNRALPSPIEKTISKPRGPVRAPQVYVLPPPAEEMTKKEFSLTCMITGFLPAEIAVDWTSNGRTEQNYKNTATVLDSDGSYFMYSKLRVQKSTWERGSLFACSVVHEGLHNHLTTKTISRSLGK
notes: also called mu-Endoglin; soluble murine ENG fusion protein
For B1, the binding result in experiment [1], in experiment [2], in experiment [3] and in experiment [4] was “no binding” throughout.

B2: hENG(26-586) (R&D Systems, catalog #1097-EN) (receptor)
chain: ETVHCDLQPVGPERGEVTYTTSQVSKGCVAQAPNAILEVHVLFLEFPTGPSQLELTLQASKQNGTWPREVLLVLSVNSSVFLHLQALGIPLHLAYNSSLVTFQEPPGVNTTELPSFPKTQILEWAAERGPITSAAELNDPQSILLRLGQAQGSLSFCMLEASQDMGRTLEWRPRTPALVRGCHLEGVAGHKEAHILRVLPGHSAGPRTVTVKVELSCAPGDLDAVLILQGPPYVSWLIDANHNMQIWTTGEYSFKIFPEKNIRGFKLPDTPQGLLGEARMLNASIVASFVELPLASIVSLHASSCGGRLQTSPAPIQTTPPKDTCSPELLMSLIQTKCADDAMTLVLKKELVAHLKCTITGLTFWDPSCEAEDRGDKFVLRSAYSSCGMQVSASMISNEAVVNILSSSSPQRKKVHCLNMDSLSFQLGLYLSPHFLQASNTIEPGQQSFVQVRVSPSVSEFLLQLDSCHLDLGPEGGTVELIQGRAAKGNCVSLLSPSPEGDPRFSFLLHFYTVPIPKTGTLSCTVALRPKTGSQDQEVHRTVFMRLNIISPDLSGCTSKG
notes: also called soluble human ENG extracellular domain
One may read the IC50 as the point on the concentration scale where inhibition reaches its midpoint. Lower therefore signals higher potency. B2: the figures for the IC50 in experiment [5], in experiment [6] and in experiment [7] were less than 10 nM, 9.7 nM and 6.3 nM, respectively.
